61 sequences from the supplement of paper PMC7877785 can be followed below.

± gives the uncertainty stated by the source.

This series is described as follows: self-splicing fitness, log relative to wild type (ln ratio); higher = more splicing; Tetrahymena group I intron in knt gene, E. coli kanamycin selection, DiMSum; sequences stand for … in CUCUCU…GGAGGGAAAAGUUAUCAGGCAUGCACCUGGUAGCUAGUCUUUAAACCAAUAGAUUGCAUCGGUUUAAAAGGCAAGACCGUCAAAUUGCGGGAAAGGGGUCAACAGCCGUUCAGUACCAAGUCUCAGGGGAAACUUUGAGAUGGCCUUGCAAAGGGUAUGGUAAUAAGCUGACGGACAUGGUCCUAACCACGCAGCCAAGUCCUAAGUCAACAGAUCUUCUGUUGAUAUGGAUGCAGUUCACAGACUAAAUGUCGGUCGGGGAAGAUGUAUUCUUCUCAUAAGAUAUAGUCGGACCUCUCCUUAAUGGGAGCUAGCGGAUGAAGUGAUGCAACACUGGAGCCGCUGGGAACUAAUUUGUAUGCGAAAGUAUAUUGAUUAGUUUUGGAGUACUCGUGGUCG
The essentials: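 Colonies from six replicate transformations of E. coli BL21(DE3) were pooled and amplicon-sequenced on an Illumina HiSeq 2500. The library placed an intron with all eight P1ex-region nucleotides randomised inside the knt kanamycin-resistance gene on pET-22b(+), and cells grew overnight at 37°C or 30°C on LB agar with or without 25 μg/mL kanamycin (plus 100 μg/mL carbenicillin, 50 μM IPTG, 0.2% rhamnose). Fitness is the DiMSum error-weighted combination of wild-type-normalised replicate fold changes, kanamycin versus none.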

With CGACAGCAAUAUUACGGGGG, the “self-splicing fitness (ln)” value runs as follows: (30 °C) -2.92 ± 0.094; (37 °C) -2.51 ± 0.11.
As to CAGAAGCAAUAUUACGUGAG, the “self-splicing fitness (ln)” value (30 °C) is -1.05 ± 0.064 and the “self-splicing fitness (ln)” value (37 °C) is -0.806 ± 0.076.
For CCCUAGCAAUAUUACGGACC, the “self-splicing fitness (ln)” value (30 °C) was -0.914 ± 0.3.
AACCAGCAAUAUUACGUACA: the “self-splicing fitness (ln)” value was -1.08 ± 0.08 (30 °C) and -0.429 ± 0.11 (37 °C).
Consider UCUAAGCAAUAUUACGAACU, for which the “self-splicing fitness (ln)” value is -2.55 ± 0.11 (30 °C) and -2.26 ± 0.15 (37 °C).
On to UCCCAGCAAUAUUACGGACG, for which the “self-splicing fitness (ln)” value reads like this: (30 °C) -3.93 ± 0.21; (37 °C) -1.97 ± 0.12.
GCUUAGCAAUAUUACGGACU: the “self-splicing fitness (ln)” value was -0.304 ± 0.085 (30 °C) and 0.4 ± 0.093 (37 °C).
Consider GAUUAGCAAUAUUACGUCCC, for which the “self-splicing fitness (ln)” value (30 °C) is -0.907 ± 0.17 and the “self-splicing fitness (ln)” value (37 °C) was -0.221 ± 0.17.
The matching figures for UGACAGCAAUAUUACGCCUU: -2.19 ± 0.12 and -1.15 ± 0.12.
Regarding CUUGAGCAAUAUUACGAGCA, the “self-splicing fitness (ln)” value is, setting by setting: (30 °C) -2.65 ± 0.41; (37 °C) -3.07 ± 0.33.
As to GUCCAGCAAUAUUACGGAUG, the “self-splicing fitness (ln)” value was -0.272 ± 0.077 (30 °C) and 0.023 ± 0.1 (37 °C).
The corresponding values for UGGCAGCAAUAUUACGGAGU are -2.61 ± 0.17 and -3.96 ± 0.31.
ACUUAGCAAUAUUACGUAGG: the “self-splicing fitness (ln)” value is, setting by setting: (30 °C) -1.25 ± 0.079; (37 °C) -1.12 ± 0.11.
The corresponding values for UUCAAGCAAUAUUACGAUCG are -1.26 ± 0.1 and -2.3 ± 0.2.
Consider AUUAAGCAAUAUUACGGAUC, for which the “self-splicing fitness (ln)” value is, setting by setting: (30 °C) -1.85 ± 0.16; (37 °C) -0.479 ± 0.18.
The matching figures for GCCAAGCAAUAUUACGUCGC: -2.63 ± 0.14 and -1.23 ± 0.1.
The matching figures for CGACAGCAAUAUUACGGGCA: -1.24 ± 0.14 and 0.117 ± 0.13.
The matching figures for GCUCAGCAAUAUUACGUACG: -1.72 ± 0.11 and -0.485 ± 0.09.
In the case of CCUCAGCAAUAUUACGGUUC, the “self-splicing fitness (ln)” value (30 °C) is -3.33 ± 0.14 and the “self-splicing fitness (ln)” value (37 °C) was -3.16 ± 0.27.
In the case of UGCAAGCAAUAUUACGGCGG, the “self-splicing fitness (ln)” value is, setting by setting: (30 °C) -0.854 ± 0.046; (37 °C) -0.116 ± 0.068.
Regarding ACAAAGCAAUAUUACGCCUG, the “self-splicing fitness (ln)” value by setting is: (30 °C) -0.933 ± 0.07; (37 °C) -0.0625 ± 0.085.
For the sequence UCCUAGCAAUAUUACGGGCG, the “self-splicing fitness (ln)” value by setting is: (30 °C) -0.227 ± 0.093; (37 °C) -0.227 ± 0.11.
In the case of AUCGAGCAAUAUUACGGUUA, the “self-splicing fitness (ln)” value is, setting by setting: (30 °C) -3.3 ± 0.23; (37 °C) -1.04 ± 0.13.
For UGUGAGCAAUAUUACGGUUG, the “self-splicing fitness (ln)” value is -2.98 ± 0.19 (30 °C) and -2.17 ± 0.23 (37 °C).
For the sequence CCGGAGCAAUAUUACGCGUC, the “self-splicing fitness (ln)” value (37 °C) was -2.18 ± 0.39.
With UACAAGCAAUAUUACGUCUU, the “self-splicing fitness (ln)” value by setting is: (30 °C) -3.55 ± 0.17; (37 °C) -1.68 ± 0.13.
The matching figures for GGCGAGCAAUAUUACGUCGA: -2.43 ± 0.23 and -0.47 ± 0.15.
Consider GCACAGCAAUAUUACGUGCA, for which the “self-splicing fitness (ln)” value was -3.1 ± 0.12 (30 °C) and -2.04 ± 0.093 (37 °C).
The matching figures for AGCAAGCAAUAUUACGAUCA: -0.258 ± 0.084 and -0.0192 ± 0.099.
For the sequence UACAAGCAAUAUUACGGCGC, the “self-splicing fitness (ln)” value by setting is: (30 °C) -1.51 ± 0.085; (37 °C) -0.801 ± 0.099.
Take UCGCAGCAAUAUUACGUUGU: the “self-splicing fitness (ln)” value by setting is: (30 °C) -2.56 ± 0.2; (37 °C) -1.73 ± 0.21.
On to UGAGAGCAAUAUUACGAUUU, for which the “self-splicing fitness (ln)” value was -2.34 ± 0.17 (30 °C) and -2.26 ± 0.27 (37 °C).
Consider GGGGAGCAAUAUUACGUUAU, for which the “self-splicing fitness (ln)” value (30 °C) is -3.58 ± 0.18 and the “self-splicing fitness (ln)” value (37 °C) was -2.14 ± 0.16.
In the case of UCAUAGCAAUAUUACGGUGA, the “self-splicing fitness (ln)” value was -2.39 ± 0.13 (30 °C) and -2 ± 0.12 (37 °C).
Regarding ACAGAGCAAUAUUACGUGGA, the “self-splicing fitness (ln)” value by setting is: (30 °C) -3.67 ± 0.31; (37 °C) -2.88 ± 0.31.
The corresponding values for AGUAAGCAAUAUUACGUGGA are -3.8 ± 0.4 and -3.85 ± 0.39.
The matching figures for CGGAAGCAAUAUUACGGAUA: -3.36 ± 0.41 and -1.81 ± 0.18.
As to GGCGAGCAAUAUUACGGCCG, the “self-splicing fitness (ln)” value (30 °C) was -2.11 ± 0.16 and the “self-splicing fitness (ln)” value (37 °C) was -0.882 ± 0.2.
As for GAAAAGCAAUAUUACGUGCA, the “self-splicing fitness (ln)” value was -0.843 ± 0.073 (30 °C) and -0.0478 ± 0.085 (37 °C).
On to CGGAAGCAAUAUUACGUUAC, for which the “self-splicing fitness (ln)” value (37 °C) was -2.57 ± 0.2.
As to AUGUAGCAAUAUUACGAAAU, the “self-splicing fitness (ln)” value (30 °C) is -1.92 ± 0.086 and the “self-splicing fitness (ln)” value (37 °C) is -0.989 ± 0.11.
The corresponding values for ACAAAGCAAUAUUACGCAUC are -3.49 ± 0.21 and -1.74 ± 0.2.
The corresponding values for AGAGAGCAAUAUUACGUUGC are -2.89 ± 0.23 and -2.89 ± 0.32.
The matching figures for AAAGAGCAAUAUUACGUAGA: -3.25 ± 0.24 and -1.7 ± 0.2.
UCAAAGCAAUAUUACGUUGC: the “self-splicing fitness (ln)” value is -3.48 ± 0.19 (30 °C) and -3.23 ± 0.26 (37 °C).
The matching figures for ACGUAGCAAUAUUACGAUAC: -2.62 ± 0.12 and -2.26 ± 0.19.
The corresponding values for AAACAGCAAUAUUACGGGAC are -3.74 ± 0.25 and -2.35 ± 0.26.
For GGGGAGCAAUAUUACGACUA, the “self-splicing fitness (ln)” value is, setting by setting: (30 °C) -0.712 ± 0.24; (37 °C) -0.539 ± 0.29.
As for CUAGAGCAAUAUUACGACAC, the “self-splicing fitness (ln)” value is, setting by setting: (30 °C) -3.9 ± 0.39; (37 °C) -2.63 ± 0.48.
For AUUUAGCAAUAUUACGUUUG, the “self-splicing fitness (ln)” value is, setting by setting: (30 °C) -3.78 ± 0.21; (37 °C) -1.25 ± 0.16.
CGGUAGCAAUAUUACGUUAG: the “self-splicing fitness (ln)” value stood at 0.11 ± 0.074 (30 °C) and 0.0358 ± 0.097 (37 °C).
Turning to UUCAAGCAAUAUUACGGGCA, the “self-splicing fitness (ln)” value (30 °C) was -0.666 ± 0.11 and the “self-splicing fitness (ln)” value (37 °C) is 0.111 ± 0.1.
The corresponding values for AAUCAGCAAUAUUACGCGUG are -0.227 ± 0.074 and 0.204 ± 0.085.
Turning to AUAUAGCAAUAUUACGGAGC, the “self-splicing fitness (ln)” value (37 °C) is -2.15 ± 0.46.
As to CAAUAGCAAUAUUACGACUA, the “self-splicing fitness (ln)” value runs as follows: (30 °C) -1.96 ± 0.36; (37 °C) -1.31 ± 0.27.
The corresponding values for CAGGAGCAAUAUUACGUCCU are -2.72 ± 0.24 and -2.08 ± 0.24.
Consider UCUAAGCAAUAUUACGUCAC, for which the “self-splicing fitness (ln)” value (30 °C) is -2.47 ± 0.24 and the “self-splicing fitness (ln)” value (37 °C) was found to be 0.446 ± 0.28.
With UCCUAGCAAUAUUACGGCGA, the “self-splicing fitness (ln)” value runs as follows: (30 °C) -0.128 ± 0.092; (37 °C) 0.153 ± 0.1.
The matching figures for CGACAGCAAUAUUACGUACC: -0.817 ± 0.12 and -0.217 ± 0.19.
The matching figures for AAUAAGCAAUAUUACGCGAA: -1.74 ± 0.12 and -1.01 ± 0.12.
The corresponding values for ACGUAGCAAUAUUACGGAAC are -2.09 ± 0.24 and -2.14 ± 0.26.
